Assay results as given in patent US20240335558A1, “ISOLATED POLYPEPTIDE AND USE THEREOF” (GLYCO-THERAPY BIOTECHNOLOGY CO., LTD., priority 2021, published 2024).

What was measured:
Assay type in all cases: biochemical
Trastuzumab-G2F [1] = test: Transfer of GDP-FAmP4Biotin to Trastuzumab-G2F by different HpFTs (% of conversion by MS); conditions: donor GDP-FAmP4Biotin 1 mM, enzyme 0.5 mg/mL, 30° C., 3 h; FIG. 1
Description: (§1) To 40 mM Tris-HCl (pH 7.5) buffer were added Trastuzumab-G2F (2 mg/mL final), GDP-FAmP4Biotin (1 mM final), MgCl2 (20 mM final), and different HpFT enzymes (HpFT-4HR, HpFT-4HR(M4), HpFT-4HR(M7), HpFT-6HR, HpFT-3HR, HpFT-2HR, HpFT-1HR, or HpFT-0HR) (0.5 mg/mL final) in sequence, and the resulting mixed solution was allowed to react at 30° C. for 3 h. Three parallels were set up for each group. After the reaction time point was reached, to the reaction solution was added 10 mM LacNAc (N-acetyl-D-lactosamine), and the reaction was terminated by a desalting column (Zeba™ Spin Desalting Columns/2 ml/40K, Thermo Fisher Scientific), and finally mass spectrometry was carried out and % of conversion was calculated. % of conversion=(MAR0 peak intensity*0+MAR1peak intensity*1+MAR2 peak intensity*2+MAR3 peak intensity*3+MAR4 peak intensity*4)/4* (MAR0 peak intensity+MAR1 peak intensity+MAR2 peak intensity+MAR3 peak intensity+MAR4 peak intensity)*100%.

[2] = tested on: Trastuzumab-(Fucα1,6)(Galβ1,4)GlcNAc; test: Transfer of GDP-FAmP4Biotin to Trastuzumab-(Fucα1,6)(Galβ1,4)GlcNAc by different HpFTs; conditions: donor GDP-FAmP4Biotin 1 mM, enzyme 0.5 mg/mL, 30° C., 1 h; FIG. 2
Description: as §1, with “added Trastuzumab-(Fucα1,6)(Galβ1,4)GlcNAc” for “added Trastuzumab-G2F”, “HpFT-2HR, HpFT-1HR” for “HpFT-2HR, HpFT-1HR,”, “for 1” for “for 3”, “mM LacNA,” for “mM LacNAc (N-acetyl-D-lactosamine),”, “peak intensity*2)/2*” for “peak intensity*2+MAR3 peak intensity*3+MAR4 peak intensity*4)/4*”, “peak” for “peak intensity+MAR3 peak intensity+MAR4 peak”

[3] = tested on: Trastuzumab-(Fucα1,6)(GalNAzβ1,4)GlcNAc; test: Transfer of GDP-FAmP4Biotin to Trastuzumab-(Fucα1,6)(GalNAzβ1,4)GlcNAc by different HpFTs; conditions: donor GDP-FAmP4Biotin 1 mM, enzyme 0.5 mg/mL, 30° C., 3 h; FIG. 3
[4] = tested on: Trastuzumab-(GalNAzβ1,4)GlcNAc; test: Transfer of GDP-FAmP4Biotin to Trastuzumab-(GalNAzβ1,4)GlcNAc by different HpFTs; conditions: donor GDP-FAmP4Biotin 1 mM, enzyme 0.5 mg/mL, 30° C., 3 h; FIG. 4
Trastuzumab-G2F [5] = test: HpFT-4HR and HFT6 transferring GDP-FAmP4Biotin to Trastuzumab-G2F; conditions: donor GDP-FAmP4Biotin 1 mM, enzyme 0.5 mg/mL, 30° C., 6 h; FIG. 5A
[6] = tested on: Trastuzumab-(GalNAzβ1,4)GlcNAc; test: HpFT-4HR and HFT6 transferring GDP-FAmP4Biotin to Trastuzumab-(GalNAzβ1,4)GlcNAc; conditions: donor GDP-FAmP4Biotin 1 mM, enzyme 0.5 mg/mL, 30° C., 6 h; FIG. 5B
Description: Three parallels were set up for each group. After the reaction time point was reached, to the reaction solution was added 10 mM LacNA, and the reaction was terminated by a desalting column (Zeba™ Spin Desalting Columns/2 ml/40K, Thermo Fisher Scientific), and finally mass spectrometry was carried out and % of conversion was calculated. % of conversion=(MAR0 peak intensity*0+MAR1peak intensity*1+MAR2 peak intensity*2)/2* (MAR0 peak intensity+MAR1 peak intensity+MAR2 peak intensity)*100%.
Three parallels were set up for each group. After the reaction time point was reached, to the reaction solution was added 10 mM LacNAc, and the reaction was terminated by a desalting column (Zeba™ Spin Desalting Columns/2 ml/40K, Thermo Fisher Scientific), and finally mass spectrometry was carried out and % of conversion was calculated. […] For Trastuzumab-(GalNAzβ1,4)GlcNAc, % of conversion was calculated according to Example 18.

Trastuzumab-G2F [7] = test: HpFT-2HR and HpFT-4HR transferring GDP-FAmP4Biotin or GDP-FAzP4Biotin to Trastuzumab-G2F; conditions: donor 1 mM, enzyme 0.5 mg/mL, 30° C., 6 h; FIG. 6(A)
Description: as §1
(§2) To 40 mM Tris-HCl (pH 7.5) buffer were added Trastuzumab-G2F (2 mg/mL final), GDP-FAmP4Biotin or GDP-FAzP4Biotin (1 mM final), MgCl2 (20 mM final), and HpFT-2HR or HpFT-4HR (0.5 mg/mL final) in sequence, and the resulting mixed solution was allowed to react at 30° C. for 6 h. Three parallels were set up for each group. After the reaction time point was reached, to the reaction solution was added 10 mM LacNAc, and the reaction was terminated by a desalting column (Zeba™ Spin Desalting Columns/2 ml/40K, Thermo Fisher Scientific), and finally mass spectrometry was carried out and % of conversion was calculated. % of conversion was calculated according to Example 17.

[8] = tested on: Trastuzumab-(GalNAzβ1,4)GlcNAc; test: HpFT-2HR and HpFT-4HR transferring GDP-FAmP4Biotin or GDP-FAzP4Biotin to Trastuzumab-(GalNAzβ1,4)GlcNAc; conditions: donor 1 mM, enzyme 0.5 mg/mL, 6 h; FIG. 6(B)
Description: as §1, with “added Trastuzumab-(Fucα1,6)(Galβ1,4)GlcNAc” for “added Trastuzumab-G2F”, “HpFT-2HR, HpFT-1HR” for “HpFT-2HR, HpFT-1HR,”, “for 1” for “for 3”, “mM LacNA,” for “mM LacNAc (N-acetyl-D-lactosamine),”, “peak intensity*2)/2*” for “peak intensity*2+MAR3 peak intensity*3+MAR4 peak intensity*4)/4*”, “peak” for “peak intensity+MAR3 peak intensity+MAR4 peak”
as §2, with “Trastuzumab-(GalNAzβ1,4)GlcNAc” for “Trastuzumab-G2F”, “30 t” for “30° C.”, “18.” for “17.”

B1: HpFT-1HR: H. pylori α-1,3-fucosyltransferase variant: catalytically active domain, a heptapeptide repeat sequence and C-terminus fused His tag (protein)
chain: MFQPLLDAFIESASIEKMVSKSPPPPLKIAVANWWGDEEIKEFKKSVLYFILSQRYAITLHQNPNESSDLVFSNPLGAARKILSYQNTKRVFYTGENESPNFNLFDYAIGFDELDFNDRYLRMPLYYAHLHYEAELVNDTTAPYKLKDNSLYALKKPSHHFKENHPNLCAVVNDESDLLKRGFASFVASNANAPMRNAFYDALNSIEPVTGGGSVRNTLGYKVGNKSEFLSQYKFNLCFENSQGYGYVTEKILDAYFSHTIPIYWGSPSVAKDFNPKSFVNVHDFNNFDEAIDYIKYLHTHPNAYLDMLYENPLNTLDGKAYFYQDLSFKKILDFFKTILENDTIYHNNPFIFYRDLHEPLISIDDLRVNYLEHHHHHH
modifications: Catalytically active domain of Helicobacter pylori Alpha-(1,3)-fucosyltransferase (GenBank No.AAD07710.1) with 1 heptapeptide repeat and a C-terminal His tag
- catalytic activity as compared with HpFT-4HR (% of conversion) (Trastuzumab-G2F [1]): significantly improved catalytic activity
- catalytic activity as compared with HpFT-4HR (% of conversion) [2]: significantly improved catalytic activity
- catalytic activity among the HpFT variants [3]: relatively high catalytic activity
- catalytic activity as compared with HpFT-4HR (% of conversion) [3]: significantly improved catalytic activity
- catalytic activity among the HpFT variants [4]: relatively high catalytic activity
- catalytic activity as compared with HpFT-4HR (% of conversion) [4]: significantly improved catalytic activity

B2: HpFT-3HR: H. pylori α-1,3-fucosyltransferase variant: catalytically active domain, three heptapeptide repeat sequences and C-terminus fused His tag (protein)
chain: MFQPLLDAFIESASIEKMVSKSPPPPLKIAVANWWGDEEIKEFKKSVLYFILSQRYAITLHQNPNESSDLVFSNPLGAARKILSYQNTKRVFYTGENESPNFNLFDYAIGFDELDFNDRYLRMPLYYAHLHYEAELVNDTTAPYKLKDNSLYALKKPSHHFKENHPNLCAVVNDESDLLKRGFASFVASNANAPMRNAFYDALNSIEPVTGGGSVRNTLGYKVGNKSEFLSQYKFNLCFENSQGYGYVTEKILDAYFSHTIPIYWGSPSVAKDFNPKSFVNVHDFNNFDEAIDYIKYLHTHPNAYLDMLYENPLNTLDGKAYFYQDLSFKKILDFFKTILENDTIYHNNPFIFYRDLHEPLISIDDLRVNYDDLRVNYDDLRVNYLEHHHHHH
modifications: Catalytically active domain of Helicobacter pylori Alpha-(1,3)-fucosyltransferase (GenBank No.AAD07710.1) with 3 heptapeptide repeats and a C-terminal His tag
- catalytic activity as compared with HpFT-4HR (% of conversion) (Trastuzumab-G2F [1]): significantly improved catalytic activity
- catalytic activity as compared with HpFT-4HR (% of conversion) [2]: significantly improved catalytic activity
- catalytic activity as compared with HpFT-4HR (% of conversion) [3]: significantly improved catalytic activity
- catalytic activity as compared with HpFT-4HR (% of conversion) [4]: significantly improved catalytic activity

B3: HpFT-4HR: reported α-1,3 fucosyltransferase (Wu P. et al.): catalytically active domain, four heptapeptide repeat sequences, C-terminus His tag (protein)
chain: MFQPLLDAFIESASIEKMVSKSPPPPLKIAVANWWGDEEIKEFKKSVLYFILSQRYAITLHQNPNESSDLVFSNPLGAARKILSYQNTKRVFYTGENESPNFNLFDYAIGFDELDFNDRYLRMPLYYAHLHYEAELVNDTTAPYKLKDNSLYALKKPSHHFKENHPNLCAVVNDESDLLKRGFASFVASNANAPMRNAFYDALNSIEPVTGGGSVRNTLGYKVGNKSEFLSQYKFNLCFENSQGYGYVTEKILDAYFSHTIPIYWGSPSVAKDFNPKSFVNVHDFNNFDEAIDYIKYLHTHPNAYLDMLYENPLNTLDGKAYFYQDLSFKKILDFFKTILENDTIYHNNPFIFYRDLHEPLISIDDLRVNYDDLRVNYDDLRVNYDDLRVNYLEHHHHHH
modifications: Catalytically active domain of Helicobacter pylori Alpha-(1,3)-fucosyltransferase (GenBank No.AAD07710.1) with 4 heptapeptide repeats and a C-terminal His tag
- catalytic activity (% of conversion), HpFT-4HR versus HFT6 (Trastuzumab-G2F [5]): much higher than that of human-derived fucosyltransferase HFT6
- catalytic activity (% of conversion), HpFT-4HR versus HFT6 [6]: much higher than that of human-derived fucosyltransferase HFT6
- activity in catalyzing the transfer of GDP-FAmP4Biotin relative to transfer of GDP-FAzP4Biotin (Trastuzumab-G2F [7]): significantly higher
- activity in catalyzing the transfer of GDP-FAmP4Biotin relative to transfer of GDP-FAzP4Biotin [8]: significantly higher
